Results reported in patent US12624112 (MABWELL SHANGHAI BIOSCIENCE, dated 2026).
Numbering of substitutions follows the chain as printed.

T1: Cyno ST2-fc (cyno; human, UniProt A0A2K5UDB8 19-331)
T1 construct: also called cyno ST2 fused with a human IgG1 Fc tag at the C-terminus
T1 sequence: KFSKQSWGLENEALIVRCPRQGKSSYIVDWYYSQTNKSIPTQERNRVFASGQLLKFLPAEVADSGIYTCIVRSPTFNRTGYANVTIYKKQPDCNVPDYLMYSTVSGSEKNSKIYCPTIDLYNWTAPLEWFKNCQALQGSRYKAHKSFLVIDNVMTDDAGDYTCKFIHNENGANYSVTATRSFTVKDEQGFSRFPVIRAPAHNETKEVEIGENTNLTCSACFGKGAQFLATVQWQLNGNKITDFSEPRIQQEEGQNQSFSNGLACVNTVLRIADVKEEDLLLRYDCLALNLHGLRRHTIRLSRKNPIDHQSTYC

T2: ST2 on KU812 cells (UniProt Q01638 19-556, limits assumed)
T2 sequence (looked up): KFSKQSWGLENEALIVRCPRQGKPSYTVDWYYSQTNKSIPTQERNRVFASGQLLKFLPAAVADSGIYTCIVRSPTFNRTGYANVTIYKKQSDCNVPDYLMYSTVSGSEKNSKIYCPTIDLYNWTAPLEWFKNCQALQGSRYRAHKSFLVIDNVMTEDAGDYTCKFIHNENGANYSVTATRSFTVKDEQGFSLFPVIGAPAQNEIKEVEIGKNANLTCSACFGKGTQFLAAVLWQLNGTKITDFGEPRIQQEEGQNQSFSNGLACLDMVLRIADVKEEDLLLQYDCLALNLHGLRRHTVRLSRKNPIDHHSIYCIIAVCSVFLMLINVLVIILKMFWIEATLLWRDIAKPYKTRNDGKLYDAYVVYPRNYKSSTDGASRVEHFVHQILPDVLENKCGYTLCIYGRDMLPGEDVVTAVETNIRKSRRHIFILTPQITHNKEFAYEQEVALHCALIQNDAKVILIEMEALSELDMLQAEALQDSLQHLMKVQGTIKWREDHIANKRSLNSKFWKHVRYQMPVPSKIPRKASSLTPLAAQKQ

T3: Human ST2-his (human, UniProt Q01638 19-328)
T3 construct: Expressed in CHO-K1; also called human ST2 fused with a 6-histidine tag at the C-terminus
T3 sequence: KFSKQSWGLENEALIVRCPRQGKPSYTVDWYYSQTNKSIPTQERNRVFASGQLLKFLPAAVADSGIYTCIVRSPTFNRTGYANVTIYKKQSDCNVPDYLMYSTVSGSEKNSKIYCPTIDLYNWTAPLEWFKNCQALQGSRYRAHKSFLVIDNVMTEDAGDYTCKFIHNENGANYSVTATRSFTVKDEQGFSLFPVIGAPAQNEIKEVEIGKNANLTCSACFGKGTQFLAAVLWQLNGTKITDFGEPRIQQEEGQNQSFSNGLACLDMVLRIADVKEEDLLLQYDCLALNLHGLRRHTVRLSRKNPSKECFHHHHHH

B1: 5887-537H3+L1 (antibody, V domains shown)
VH: QVTLKESGPGILQPSQTLSLTCSFSGFSLSTSGMGVGWIRQPSGKGLEWLAHIWWDDVKQYNPALKSRLTISKDTSSSQVFLKSASVDTADTATYYCARIGGDYDYFDFWGQGTTLTVSS
VL: DIVLTQSPASLAVSLGQRATISCRASESVEYSGTSLMQWYQQKPGQPPKLLIYVASNVESGVPARFSGSGSGTDFSLNIHPVEEDDIAMYFCQQSRKVPWTFGGGTKLEIK
notes: murine antibody; also called 5887-537H3H+L1
B2: 5886-156H+L (antibody, V domains shown)
VH: DVQLQQSGPGLVKPSQSLSLTCTVTGYSITSDYAWNWIRQFPGNKLEWMGYIDYSGSTTYNPSLKSRFSITRDTSKNQFFLQLNSVTTEDTATYYCASTVIDSMDYWGQGTSVTVSS
VL: DIVLTQSPASLAVSLGQRATISCRASKSVSTSGHSYMHWYQQKPGQPPKLLIYLASNLESGVPARFSGSGSGTDFTLNINPMEEEDAATYYCQHSREFPFTFGSGTKLEIK
notes: murine antibody
B3: 5887-41H+L (antibody, V domains shown)
VH: B2 VH with N36D, D53R, S57D, T59Y, F68I, S98T, V100M, I101M, S103T
VL: B2 VL with A12T, H34N, N80H, M82V, F100L, S104A, I110L
notes: murine antibody
B4: 5888-116H1+L1 (antibody, V domains shown)
VH: QVQLQQSGAELVRPGASVTLSCKASGYTFTDSEMYWVRLTPVHGLEWIGAIDPETGDTAFNQKFKGKATLTADKSSSTAYMELRSLTSEDSVVYYCTRAFDNDNDDGFAYWGQGTLVTVSA
VL: QIVMTQSPAIMSASPGEKVTMTCSASSSVNYMHWYQQKSGTSPKRWIYDTSKLASGVPARFSGSGSGTSYSLTISSMEAEDAATYYCQQWSSNPLTFGAGTKLELK
notes: murine antibody
B5: 5888-153H1+L2 (antibody, V domains shown)
VH: QVQLQQSGAELVRPGASVTLSCKASGYTFTDYELHWVKQTPVHGLEWIGTIDPETGDTVYNQKFKAKAILTADKSSSTAYMEFRSLTSEDSAVCYCTRAFYNDYDDGFAYWGQGTLVTVSA
VL: B4 VL with S7T, A25V, N30S, S75N, S76N, S91N, N93S
notes: murine antibody
B6: Control antibody CNTO7160 (antibody, human IgG4 S228P, kappa, V domains shown)
VH: EVQLLESGGGLVQPGGSLRLSCAASGFTFSIYDMIWVRQAPGKGLEWVSSIRGEGGGTYYADSVKGRFTISRDNSKNTLYLQMNSLRAEDTAVYYCARDPWSTEGSFFVLDYWGQGTLVTVSS
VL: EIVLTQSPATLSLSPGERATLSCRASQSVDDDLAWYQQKPGQAPRLLIYDASNRATGIPARFSGSGSGTDFTLTISSLEPEDFAVYYCQQYITAPLTFGQGTKVEIKR

target: T1, Cyno ST2-fc; assay: SPR Biacore X100, antibody on CM5, cyno ST2-fc analyte
Method: The experiment on the interactions between the anti-human ST2 antibodies and cyno ST2-fc was performed using Biacore X100, and was carried out at 25° C. in HBS-EP (1×) buffer (pH 7.4). Each antibody was immobilized on the surface of CM5 chip using an amino coupling kit. Following the antibody immobilization, a solution of cyno ST2-fc (2-fold gradient dilution from a starting concentration of 8 nM, to obtain 6 concentrations in total; the starting concentration might be increased if the signal of some sample was too low) was injected. Association was monitored for 2 min and dissociation for 10 min, and the sensor surface was regenerated by injecting a solution of glycine at pH 1.5.

Row | Binder | Kd [nM] | koff [s⁻¹] | kon [M⁻¹ s⁻¹]
1 | B1 | 0.0807 | 0.000511 | 6.33e+06
2 | B2 | 0.206 | 0.000747 | 3.62e+06
3 | B3 | 0.0903 | 0.000721 | 7.98e+06
4 | B4 | 0.0469 | 0.000382 | 8.14e+06
5 | B5 | 0.143 | 0.00139 | 9.68e+06
6 | B6 | 0.136 | 0.000221 | 1.63e+06

target: T1, Cyno ST2-fc; assay: ELISA, coated cyno ST2-fc
Method: Cyno ST2-fc was diluted with a coating buffer to 1 μg/mL, added into 96-well plates at 50 μL/well and coated overnight at 4° C. Next day, the coated plates were taken, washed with PB ST for 3 times, and then incubated using a blocking buffer at room temperature for 1 hr. Subsequently, the plates were washed with PBST for 3 times again. Starting at 1000 ng/mL, each murine antibody was diluted 3-fold to obtain serial dilutions of 8 concentrations in total which were then added into the 96-well plates at 50 μL/well. The plates were incubated at room temperature for 1 hr, washed with PB ST for 3 times; and then a goat anti-mouse secondary antibody (1:10000) was added at 50 μL/well into the 96-well plates which subsequently were incubated at room temperature for 1 hr. The 96-well plates were washed with PB ST for 3 times, and TMB was added at 50 μL/well to develop color in dark for 10 min. Afterwards, 2 M sulfuric acid was added to stop reaction; and GD values at 450 nm were read by a microplate reader. It can be seen that the murine antibodies can bind to cyno ST2, with a binding trendency consistent with the binding to human ST2.

Row | Binder | EC50 [µg/mL] | Relative activity (%)
7 | B1 | 0.0171 | 78.5
8 | B2 | 0.0203 | 66.4
9 | B3 | 0.0615 | 21.9
10 | B4 | 0.0384 | 63.7
11 | B5 | 0.0303 | 80.7

target: T2, ST2 on KU812 cells; assay: cell-based or functional assay

Row | Binder | IC50, activation of KU812-NF-κB reporter gene by IL33 [µg/mL] | Relative activity (%) compared with CNTO7160, KU812-NF-κB reporter [%]
12 | B1 | 0.101 | 40.2
13 | B2 | 0.00804 | 127
14 | B3 | 0.00287 | 41.9
15 | B4 | 0.206 | 122
16 | B5 | 0.0495 | 506

target: T3, Human ST2-his; assay: ELISA, coated human ST2-his
Method: Human ST2-his was diluted with a coating buffer to 1 μg/mL, added into plates at 50 μL/well, and coated overnight at 4° C. Next day, the coated plates were taken, washed with PBST for 3 times, and then incubated using a blocking buffer at room temperature for 1 hr. Subsequently, the plates were washed with PBST for 3 times again. Starting at 100 ng/mL, each murine antibody was diluted 3-fold to obtain serial dilutions of 8 concentrations in total which were then added into the 96-well plates at 50 μL/well. The plates were incubated at room temperature for 1 hr, washed with PBST for 3 times; and then a goat anti-mouse secondary antibody (1:10000) was added at 50 μL/well into the 96-well plates which subsequently were incubated at room temperature for 1 hr. The 96-well plates were washed with PBST for 3 times, and TMVB was added at 50 μL/well to develop color in dark for 10 min. Afterwards, 2 M sulfuric acid was added to stop reaction; and GD values at 450 nm were read by a micro-plate reader.

Row | Binder | EC50 [µg/mL] | Relative activity (%) compared with CNTO7160 [%]
17 | B1 | 0.0123 | 72.4
18 | B2 | 0.0161 | 131
19 | B3 | 0.0266 | 97.9
20 | B4 | 0.0288 | 63.4
21 | B5 | 0.0209 | 87.4

target: T3, Human ST2-his; assay: SPR Biacore X100, antibody on protein A, ST2-his analyte
Method: On the basis of the results of the quantitative screenings of murine antibodies above together, 19 murine antibodies were selected for affinity determination and in vitro pharmacological study. The experiment on the interaction between the anti-human ST2 antibodies and human ST2-his was performed using Biacore X100, and was carried out at 25° C. in HBS-EP (1×) buffer (pH 7.4).
Each anti-human ST2 antibody was diluted to 10 nM and captured on the surface of a protein A chip (for a capture time of 60 s). […] Association was monitored for 4 min and dissociation for 10 min, and the sensor surface was regenerated by injecting a solution of glycine at pH 2.0. Data generated for kinetics and affinity assay were analyzed using BIAevaluation software.

Row | Binder | Kd [nM] | koff [s⁻¹] | kon [M⁻¹ s⁻¹]
22 | B1 | 0.168 | 0.00084 | 5.01e+06
23 | B2 | 0.461 | 0.00109 | 2.37e+06
24 | B3 | 0.56 | 0.000613 | 1.1e+06
25 | B4 | 0.113 | 0.00111 | 9.87e+06
26 | B5 | 0.0943 | 0.000864 | 9.17e+06
27 | B6 | 0.698 | 0.000539 | 827000

target: Human ST2-fc (human) (UniProt Q01638); assay: competition ELISA, coated ST2-fc, competitor IL33-his

Row | Binder | IC50 [µg/mL] | Relative activity (%) compared with CNTO7160 [%]
28 | B1 | 0.99 | 93.5
29 | B2 | 1.14 | 76.6
30 | B3 | 1.29 | 82.7
31 | B4 | 0.9 | 65.2
32 | B5 | 0.75 | 78.4

target: T2, ST2 on KU812 cells; assay: cell-based or functional assay; remark: another data set of the same source

Row | Binder | Maximum inhibition rate (%), KU812 IL-5 production [%] | Relative activity (%), KU812 IL-5 production [%]
33 | B1 | 62.2 | 767
34 | B2 | 84.2 | 304
35 | B3 | 79.2 | 128
36 | B4 | 81.4 | 238
37 | B5 | 86 | 115
38 | B6 | 89 | –
